Measurements taken from the Human Domainome abundance scans (Beltran et al. 2025).
± gives the uncertainty stated by the source.

B1: Androgen receptor, residues 557 to 632; numbered along this chain, P10275 (parent)
chain: QKTCLICGDEASGCHYGALTCGSCKVFFKRAAEGKQKYLCASRNDCTIDKFRRKNCPSCRLRKCYEAGMTLGARKL

Variants of: B1
Assay: abundance fitness (aPCA) (normalised: wild type 0, dead -1); higher = more abundant; growth selection in yeast, the domain comes from the species named
Details: Homo sapiens

Row | Variant | abundance fitness
1 | QKTCLICGDEASGCHYGCLTCGSCKVFFKRAAEGKQKYLCASRNDCTIDKFRRKNCPSCRLRKCYEAGMTLGARKL [A18C] | -0.084 ± 0.047
2 | QKTCLICGDEASGCHYGALKCGSCKVFFKRAAEGKQKYLCASRNDCTIDKFRRKNCPSCRLRKCYEAGMTLGARKL [T20K] | -0.755 ± 0.24
3 | QKTCLICGDEASGCHYGALLCGSCKVFFKRAAEGKQKYLCASRNDCTIDKFRRKNCPSCRLRKCYEAGMTLGARKL [T20L] | -0.166 ± 0.043
4 | QKTCLICGDEASGCHYGALGCGSCKVFFKRAAEGKQKYLCASRNDCTIDKFRRKNCPSCRLRKCYEAGMTLGARKL [T20G] | -0.539 ± 0.042
5 | QKTCLICGDEASGCHYGALCCGSCKVFFKRAAEGKQKYLCASRNDCTIDKFRRKNCPSCRLRKCYEAGMTLGARKL [T20C] | 0.002 ± 0.064
6 | QKTCLICGDEASGCHYGALACGSCKVFFKRAAEGKQKYLCASRNDCTIDKFRRKNCPSCRLRKCYEAGMTLGARKL [T20A] | -0.041 ± 0.035
7 | QKTCLICGDEASGCHYGALICGSCKVFFKRAAEGKQKYLCASRNDCTIDKFRRKNCPSCRLRKCYEAGMTLGARKL [T20I] | -0.035 ± 0.22
8 | QKTCLICGDEASGCHYGALHCGSCKVFFKRAAEGKQKYLCASRNDCTIDKFRRKNCPSCRLRKCYEAGMTLGARKL [T20H] | -0.299 ± 0.15
9 | QKTCLICGDEASGCHYGALMCGSCKVFFKRAAEGKQKYLCASRNDCTIDKFRRKNCPSCRLRKCYEAGMTLGARKL [T20M] | -1 ± 0.18
10 | QKTCLICGDEASGCHYGALECGSCKVFFKRAAEGKQKYLCASRNDCTIDKFRRKNCPSCRLRKCYEAGMTLGARKL [T20E] | -0.825 ± 0.12
11 | QKTCLICGDEASGCHYWALTCGSCKVFFKRAAEGKQKYLCASRNDCTIDKFRRKNCPSCRLRKCYEAGMTLGARKL [G17W] | -0.645 ± 0.065
12 | QKTCLICGDEASGCHYLALTCGSCKVFFKRAAEGKQKYLCASRNDCTIDKFRRKNCPSCRLRKCYEAGMTLGARKL [G17L] | -0.552 ± 0.048
13 | QKTCLICGDEASGCHYPALTCGSCKVFFKRAAEGKQKYLCASRNDCTIDKFRRKNCPSCRLRKCYEAGMTLGARKL [G17P] | -0.691 ± 0.092
14 | QKTCLICGDEASGCHYQALTCGSCKVFFKRAAEGKQKYLCASRNDCTIDKFRRKNCPSCRLRKCYEAGMTLGARKL [G17Q] | -0.357 ± 0.05
15 | QKTCLICGDEASGCHYRALTCGSCKVFFKRAAEGKQKYLCASRNDCTIDKFRRKNCPSCRLRKCYEAGMTLGARKL [G17R] | -0.33 ± 0.032
16 | QKTCLICGDEASGCHYTALTCGSCKVFFKRAAEGKQKYLCASRNDCTIDKFRRKNCPSCRLRKCYEAGMTLGARKL [G17T] | -0.411 ± 0.054
17 | QKTCLICGDEASGCHYMALTCGSCKVFFKRAAEGKQKYLCASRNDCTIDKFRRKNCPSCRLRKCYEAGMTLGARKL [G17M] | -0.229 ± 0.057
18 | QKTCLICGDEASGCHYSALTCGSCKVFFKRAAEGKQKYLCASRNDCTIDKFRRKNCPSCRLRKCYEAGMTLGARKL [G17S] | -0.319 ± 0.05

Row | Variant | abundance fitness
19 | QKTCLICGDEASGCHYNALTCGSCKVFFKRAAEGKQKYLCASRNDCTIDKFRRKNCPSCRLRKCYEAGMTLGARKL [G17N] | -0.061 ± 0.23
20 | QKTCLICGDEASGCHYGAWTCGSCKVFFKRAAEGKQKYLCASRNDCTIDKFRRKNCPSCRLRKCYEAGMTLGARKL [L19W] | 0.029 ± 0.091
21 | QKTCLICGDEASGCHYGAETCGSCKVFFKRAAEGKQKYLCASRNDCTIDKFRRKNCPSCRLRKCYEAGMTLGARKL [L19E] | 0.034 ± 0.043
22 | QKTCLICGDEASGCHYGACTCGSCKVFFKRAAEGKQKYLCASRNDCTIDKFRRKNCPSCRLRKCYEAGMTLGARKL [L19C] | -0.19 ± 0.16
23 | QKTCLICGDEASGCHYGARTCGSCKVFFKRAAEGKQKYLCASRNDCTIDKFRRKNCPSCRLRKCYEAGMTLGARKL [L19R] | -0.006 ± 0.044
24 | QKTCLICGDEASGCHYGAMTCGSCKVFFKRAAEGKQKYLCASRNDCTIDKFRRKNCPSCRLRKCYEAGMTLGARKL [L19M] | -0.03 ± 0.075
25 | QKTCLICGDEASGCHYGASTCGSCKVFFKRAAEGKQKYLCASRNDCTIDKFRRKNCPSCRLRKCYEAGMTLGARKL [L19S] | -0.109 ± 0.051
26 | QKTCLICGDEASGCHYGAATCGSCKVFFKRAAEGKQKYLCASRNDCTIDKFRRKNCPSCRLRKCYEAGMTLGARKL [L19A] | -0.063 ± 0.049
27 | QKTCLICGDEASGCHYGAVTCGSCKVFFKRAAEGKQKYLCASRNDCTIDKFRRKNCPSCRLRKCYEAGMTLGARKL [L19V] | -0.035 ± 0.047
28 | QKTCLICGDEASGCHYGAYTCGSCKVFFKRAAEGKQKYLCASRNDCTIDKFRRKNCPSCRLRKCYEAGMTLGARKL [L19Y] | -0.101 ± 0.081
29 | QKTCLICGDEASGCHYGAKTCGSCKVFFKRAAEGKQKYLCASRNDCTIDKFRRKNCPSCRLRKCYEAGMTLGARKL [L19K] | -0.015 ± 0.043
30 | QKTCLICGDEASGCHYGANTCGSCKVFFKRAAEGKQKYLCASRNDCTIDKFRRKNCPSCRLRKCYEAGMTLGARKL [L19N] | -0.065 ± 0.057
31 | QKTCLICGDEASGCHYGAQTCGSCKVFFKRAAEGKQKYLCASRNDCTIDKFRRKNCPSCRLRKCYEAGMTLGARKL [L19Q] | 0.059 ± 0.11
32 | QKTCLICGDEASGCHYGADTCGSCKVFFKRAAEGKQKYLCASRNDCTIDKFRRKNCPSCRLRKCYEAGMTLGARKL [L19D] | -0.048 ± 0.063
33 | QKTCLICGDEASGCHYGAPTCGSCKVFFKRAAEGKQKYLCASRNDCTIDKFRRKNCPSCRLRKCYEAGMTLGARKL [L19P] | -0.106 ± 0.23
34 | QKTCLICGDEASGCHYGAITCGSCKVFFKRAAEGKQKYLCASRNDCTIDKFRRKNCPSCRLRKCYEAGMTLGARKL [L19I] | -0.034 ± 0.1
35 | QKTCLICGDEASGCHYGATTCGSCKVFFKRAAEGKQKYLCASRNDCTIDKFRRKNCPSCRLRKCYEAGMTLGARKL [L19T] | -0.017 ± 0.13
36 | QKTCLICGDEASGCHYGAGTCGSCKVFFKRAAEGKQKYLCASRNDCTIDKFRRKNCPSCRLRKCYEAGMTLGARKL [L19G] | -0.399 ± 0.044
